Test results taken from PMC8930769.

Biological target: native human uromodulin (UMOD), full-length, filaments (human) (UniProt P07911)
Experiment: cryo-EM structure; purified native UMOD filaments and His-tagged FimHL A27V mixed at a molar ratio of 1:3, 30 min, dialysed against 10 mM Na-HEPES pH 7.0; single-particle cryo-EM, 7.4 Å; FimHL docked into the difference map

His-tagged FimHL A27V from UPEC strain UTI89 (from UniProt Q1R2J4 22-179) (domain or fragment)
stoichiometry N: 1
